In this test the target is WT SARS-CoV-2 RBD (SARS-CoV-2, UniProt P0DTC2 14-1211). In words: ELISA.

B1: DP4F2 (VHH)
VHH: EVQLQASGGGFVQPGGSLRLSCAASGTTYSERVMGWFRQAPGKEREFVSAISSGQSDQTYYADSVKGRFTISRDNSKNTVYLQMNSLRAEDTATYYCAPFAGDANLPREWYWGQGTQVTVSS
The molecule B1 had a Kd of 10.7 nM.

B2: AP1A5 (Fc fusion)
chain: EVQLQASGGGFVQPGGSLRLSCAASGSTASHYTMGWFRQAPGKEREFVSAISSGRDHAKQYADSVKGRFTISRDNSKNTVYLQMNSLRAEDTATYYCAYEEINATQKDTLYWGQGTQVTVSS
Molecule B2 had a Kd of 1.19 nM.

B3: AP1C3 (VHH)
VHH: EVQLQASGGGFVQPGGSLRLSCAASGRTYRGYSMGWFRQAPGKEREFVSAISSWSDDWTAYADSVKGRFTISRDNSKNTVYLQMNSLRAEDTATYYCAWQYIDEIQYYWGQGTQVTVSS
Take B3: the Kd was found to be 0.08 nM.

B4: AP1D4 (Fc fusion)
chain: EVQLQASGGGFVQPGGSLRLSCAASGHTFDAHRMGWFRQAPGKEREFVSAISSWGQSSTYYADSVKGRFTISRDNSKNTVYLQMNSLRAEDTATYYCAQTDEGNQYVYWGQGTQVTVSS
In the case of B4, the Kd worked out at 0.97 nM.

B5: BP2A6 (VHH)
VHH: EVQLQASGGGFVQPGGSLRLSCAASGQTFSHYIMGWFRQAPGKEREFVSAISAGQGHATYYADSVKGRFTISRDNSKNTVYLQMNSLRAEDTATYYCAKYQDTIAPLYWGQGTQVTVSS
Molecule B5 displayed a Kd of 0.06 nM.

For the origin of these results see publication PMC11793827 (2025).
